The target of this test is T1, Gli3C′ΔXhoI (Myc-tagged C-terminal deleted XhoI Gli 3 truncate) (human, UniProt P10071 1-547).
T1 construct: also called Gli3C'XhoI
T1 sequence: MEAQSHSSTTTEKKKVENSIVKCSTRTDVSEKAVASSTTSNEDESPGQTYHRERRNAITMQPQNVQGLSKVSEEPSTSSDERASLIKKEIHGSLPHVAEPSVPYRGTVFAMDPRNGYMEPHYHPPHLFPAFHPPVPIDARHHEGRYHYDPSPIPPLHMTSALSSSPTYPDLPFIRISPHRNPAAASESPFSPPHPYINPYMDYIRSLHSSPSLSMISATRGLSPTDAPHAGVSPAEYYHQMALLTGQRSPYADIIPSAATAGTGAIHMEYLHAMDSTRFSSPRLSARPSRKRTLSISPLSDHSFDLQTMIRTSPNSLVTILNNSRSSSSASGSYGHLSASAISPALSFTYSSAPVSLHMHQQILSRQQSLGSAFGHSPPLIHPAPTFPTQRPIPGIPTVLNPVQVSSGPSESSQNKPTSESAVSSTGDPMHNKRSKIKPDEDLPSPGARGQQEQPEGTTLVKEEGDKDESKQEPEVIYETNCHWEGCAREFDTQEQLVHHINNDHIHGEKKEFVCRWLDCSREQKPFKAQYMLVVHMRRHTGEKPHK
The test can be described thus: co-immunoprecipitation (anti-Flag IP, anti-Myc blot), transfected cells. How it is done:
Immunoprecipitation and immunoblotting: The assay was performed as previously described ( Liu et al, 1997, Genes Dev. 11:3157-3167). RIB/L17 or COS1 cells were cotransfected with Myc-tagged full-length or deletion derivatives of Gli3 or Gli1 along with a Flag-tagged Smad construct by the DEAE-dextran method. BMP or TGFP stimulation was by cotransfection of an activated BMP or TGFβ receptor and treatment with BMP (2 nM) or TGFβ (500 pM) for 1 hour. Cells were lysed in TNE buffer (10 mM Tris (pH7.8), 150 mM NaCl, 1 mM EDTA, 1% NP40) in the presence of protease inhibitors. Immunoprecipitation was performed by incubation with the M2 anti-Flag antibody (Eastman Kodak) for 1 hour. Immunoprecipitates were separated in an 8% SDS-PAGE and transferred to a PVDF membrane. Inmmunoblotting was carried out by using the 9E10 anti-Myc antibody (ascites), followed by incubation with HRP-conjugated goat anti-mouse antibodies and detected by chemiluminescence (Amersham).

B1: Flag-Smad1 (other, UniProt Q15797 1-465, looked up)
chain: MNVTSLFSFTSPAVKRLLGWKQGDEEEKWAEKAVDALVKKLKKKKGAMEELEKALSCPGQPSNCVTIPRSLDGRLQVSHRKGLPHVIYCRVWRWPDLQSHHELKPLECCEFPFGSKQKEVCINPYHYKRVESPVLPPVLVPRHSEYNPQHSLLAQFRNLGQNEPHMPLNATFPDSFQQPNSHPFPHSPNSSYPNSPGSSSSTYPHSPTSSDPGSPFQMPADTPPPAYLPPEDPMTQDGSQPMDTNMMAPPLPSEINRGDVQAVAYEEPKHWCSIVYYELNNRVGEAFHASSTSVLVDGFTDPSNNKNRFCLGLLSNVNRNSTIENTRRHIGKGVHLYYVGGEVYAECLSDSSIFVQSRNCNYHHGFHPTTVCKIPSGCSLKIFNNQEFAQLLAQSVNHGFETVYELTKMCTIRMSFVKGWGAEYHRQDVTSTPCWIEIHLHGPLQWLDKVLTQMGSPHNPISSVS
notes: not shown: Flag tag
As for B1, the binding result is given as “no binding”.
